Experimental findings from US20220193133A1 (CENTURY THERAPEUTICS, published 2022) are described below.

B3: humanized B11 VHH CAR (hyLYSO_CW_P01_B11) on Nurkat cells (other, not shown: small tags and cut ends)
chain: EVQLLESGGGLVQPGGSLRLSCAASGGIFSGGRMGWFRQAPGKEREFVAAVITRGGSTYYADSVKGRFTISRDNSKNTLYLQMNSLRAEDTAVYYCAASEVTYDEGRYIGTKSTYDTWGQGTQVTVSS
notes: also called B11 (p1649); P1649

Where two headings read alike, the source gives them in different places.

In data set [1] the target is T1, D04-Fc (humanized D04 VHH Fc fusion).
T1 construct: also called LysoD04.Fc; not shown: Fc
As to the kind of experiment: Octet (BLI) specificity analysis, sample vs analyte. A general note: BLI is a label-free optical method that tracks binding on a fibre tip over time.

Data set [2] concerns the target T2, D04-his tagged VHH (humanized D04).
T2 construct: also called LysoD04.His; D04 his-tagged protein
The data set is described as above.

Data set [3] deals with PROT939 (an off target VHH-fc soluble). The data set is described as above.
For data set [4], the target named is Fc-y fragment. The data set is described as above.
In data set [5] the target is total human IgG from sera. The data set is described as above.
Data set [6] addresses T2, D04-his tagged VHH (humanized D04). The experiment in a line: Octet (BLI), anti-idiotype VHH-Fc vs his-tagged VHH; table title prints B11-his, paragraph 353 ties these values to D04.
Data set [7] addresses T3, human lysozyme (human, UniProt P61626 19-148, biotinylated).
T3 construct: also called human lysozyme protein
T3 sequence (looked up): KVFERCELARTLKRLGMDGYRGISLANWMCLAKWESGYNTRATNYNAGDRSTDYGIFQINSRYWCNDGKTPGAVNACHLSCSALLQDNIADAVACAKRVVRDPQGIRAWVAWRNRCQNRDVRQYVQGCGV
As to the kind of experiment: flow cytometry, CAR Jurkat cells + 10 ug/mL biotinylated lysozyme, streptavidin-APC, % positive cells.

The target of data set [8] is T4, chicken lysozyme (Hen Egg Lysozyme) (chicken, UniProt P00698 19-147, biotinylated).
T4 construct: also called HEL; chicken egg white lysozyme
T4 sequence (P00698 19-147): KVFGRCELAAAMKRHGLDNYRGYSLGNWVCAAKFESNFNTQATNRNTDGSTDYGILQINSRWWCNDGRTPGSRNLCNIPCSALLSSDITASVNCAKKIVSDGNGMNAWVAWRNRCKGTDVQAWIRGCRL
The description is as above.

Data set [9] addresses T4, chicken lysozyme (Hen Egg Lysozyme). As to the kind of experiment: flow cytometry, CAR Nurkat cells + biotinylated HEL, streptavidin-APC, % positive cells.
Data set [10] has as its target T5, D04 protein (humanized D04 VHH as ELISA antigen).
T5 construct: Panning used biotinylated D04-Fc; the ELISA legend says only 'D04 protein'
The experiment in a line: periplasmic extract ELISA, absorbance 450 nm, single point.

The target of data set [11] is T6, B11 protein (humanized B11 VHH as ELISA antigen).
T6 construct: Panning used B11-Fc; the ELISA legend says only 'B11 protein'
Described as above.

The target of data set [12] is T6, B11 protein (humanized B11 VHH as ELISA …). The data set is described as above. This is another data set of the same source.
In data set [13] the target is T5, D04 protein (humanized D04 VHH as ELISA …). The data set is described as above. This is another data set of the same source.
The target of data set [14] is T6, B11 protein (humanized B11 VHH as ELISA …). Described as above. The source holds these as a separate data set.
Data set [15] deals with B3. The experiment in a line: flow cytometry, VHH-Fc on CAR Nurkat cells, 3-fold dilutions 50 to 0.02 nM, anti-Fc APC, %Fc positive cells. From the text: […] Fc-fusion protein was detected via anti-Fc APC, and the percentage of cells that were positive for this detection method are shown. […] Controls include (i) no VHH-Fc added and (ii) the anti-VHH cocktail detection reagent (far right). The samples shown in the graphs for each protein appear in the order as specified in the legend.

Data set [16] deals with T7, B11-his tagged VHH (humanized B11).
T7 construct: also called B11-his protein; B11 his-tagged protein
The experiment in a line: Octet (BLI), anti-idiotype VHH-Fc vs his-tagged VHH; table title prints D04-his, its footnote prints B11-his.

Data set [17] concerns the molecule itself. The experiment in a line: Octet (BLI) specificity analysis, sample vs analyte.
The target of data set [18] is T5, D04 protein (humanized D04 VHH as ELISA …). As to the kind of experiment: periplasmic extract ELISA, absorbance 450 nm, single point. The source holds these as a separate data set. (In general: ELISA stands for enzyme-linked immunosorbent assay.)

A word on the Kd: it is the concentration at which binding is half-saturated. The koff is a measure of how fast the partners let go of each other. Higher therefore signals fast dissociation. Usually kon stands for the second-order rate constant of association. A higher kon goes with fast association.

B1: AMD77 (huD04_CNTY1_A11 anti-idiotype VHH IgG1-Fc fusion) (Fc fusion)
VHH: EVQLLESGGGLVQPGGSLRLSCAASGFTSSNYVMGWYRQAPGKEREFVSAIGSGGSTYYADSVKGRFTISRDNSKNTLYLQMNSLRAEDTAVYYCAAEIYTSGARDYWGQGTQVTVSS
modifications: Biotinylated in the FIG. 18 and FIG. 19 assays; the biotin sites are not stated.
notes: not shown: IgG1 Fc (and any hinge or linker to it)
Take B1: the Response was 2.67 in data set [1]; 0.337 in data set [2]; -0.0053 in data set [3]; -0.009 in data set [4]; -0.0155 in data set [5]; 0.497 in data set [6]. The molecule further yielded a Kd in [6] of 0.00208 µM. The same molecule showed a koff in [6] of 0.00145 s⁻¹. The molecule also displayed a kon in data set [6] of 696000 M⁻¹ s⁻¹.

B2: LYSO_CW_P01_B11 VHH CAR (camelid B11) on Jurkat cells (other, not shown: small tags and cut ends)
chain: QVQLVESGGGLVQAGGSLRLSCAASGGIFSGGRMGWFRQAPGKEREFVAAVITRGGSTYYADSVKGRFTISRDNAKNTVYLQMNSLKPEDTAVYYCAASEVTYDEGRYIGTKSTYDTWGQGTQVTVSS
notes: camelid (not humanized) VHH; also called B11(p242)
B2: the binding result is listed as “no binding (tested: 10 ug/mL)” in data set [7] and “binds” in data set [8].

As to B3, in data set [9], the binding result is listed as “binds”.

B4: p245 (other)
CAR: QVQLVESGGGLVQAGGSLRLSCAASGGIFSGGRMGWFRQAPGKEREFVAAVITRGGSTYYADSVKGRFTISRDNAKNTVYLQMNSLKPEDTAVYYCAASEVTYDEGHYIGTKSTYDTWGQGTQVTVSS
As for B4, the binding result in [7] is “no binding (tested: 10 ug/mL)”.

B5: p253 (other)
CAR: QVQLVESGGGLVQAGGSLRLSCAASGSSFSIYDVGWFRQAPGKEREFVAATIETGGHTSYADSVKGRFTISRDNAKNTVYLQMNSLKPEDTAVYYCYAKIVYDQGPSYYYWGQGTQVTVSS
Consider B5, for which the results for the binding result in [7] and in [8] were “no binding (tested: 10 ug/mL)” and “binds”, respectively.

B6: huB11_CNTY1_E11 anti-idiotype VHH (periplasmic extract) (VHH)
VHH: EVQLLESGGGLVQPGGSLRLSCAASGFAFSDYVMGWYRQAPGKEREFVSAIRSTTSTYYADSVKGRFTISRDNSKNTLYLQMNSLRAEDTAVYYCAADVWSGYEYDYWGQGTQVTVSS
notes: Screened as periplasmic extract; also called VHH of AMD75
In the case of B6, the binding result in [10] is “no binding”.

B7: huB11_CNTY1_B11 anti-idiotype VHH (periplasmic extract) (VHH)
VHH: EVQLLESGGGLVQPGGSLRLSCAASGLAFSSYAMGWYRQAPGKEREFVSVISGTGETLYADSVKGRFTISRDNSKNTLYLQMNSLRAEDTAVYYCAADVWSGYEYDYWGQGTQVTVSS
notes: Screened as periplasmic extract; also called VHH of AMD76
For the molecule B7, the binding result is recorded as “binds” in data set [11] and “no binding” in [10].

B8: huD04_CNTY2_D02 anti-idiotype VHH (periplasmic extract) (VHH)
VHH: EVQLLESGGGLVQPGGSLRLSCAASGFTFRSYAMGWYRQAPGKEREGVSVISSGGTPSYADSVKGRFTISRDNSKNTLYLQMNSLRAEDTAVYYCDAIMGLVEADYVSTGTYEYTAYAYWGQGTQVTVSS
notes: Screened as periplasmic extract; also called VHH of AMD80
B8: the binding result in data set [12] is “no binding”; in data set [13], “binds”.

B9: huD04_CNTY2_D12 anti-idiotype VHH (periplasmic extract) (VHH)
VHH: EVQLLESGGGLVQPGGSLRLSCAASGSAFSSNAMGWYRQAPGKERELVSAISSGGSTNYADSVKGRFTISRDNSKNTLYLQMNSLRAEDTAVYYCAARNPLTYTALVSNAPSGDYYLFEYRLWGQGTQVTVSS
notes: Screened as periplasmic extract; also called VHH of AMD85
Regarding B9, the values for the binding result in [12] and in [13] were “no binding” and “binds”, respectively.

B10: p248 (other)
CAR: QVQLVESGGGLVQAGGSLRLSCAASGSIFSFYDVGWFRQAPGKEREFVAASITKGGGTYYVDSVKGRFTISRDNAKNTVYLQMNSLKPEDTAVYYCALATPHGYDFWGQGTQVTVSS
B10: the binding result in data set [7] and in data set [8] was “no binding (tested: 10 ug/mL)” throughout.

B11: LYSO_CW_P01_D04 VHH CAR (camelid D04) on Jurkat cells (other, not shown: small tags and cut ends)
chain: QVQLVESGGGLVQAGGSLRLSCAASGRIFSIYDTIGWFRQAPGKEREFVAATITTAGITTYDDSVKGRFTISRDNAKNTVYLQMNSLKPEDTAVYYCYVRVGRGDYWGQGTQVTVSS
notes: camelid (not humanized) VHH; also called D04 (p244)
For B11, the binding result is recorded as “no binding (tested: 10 ug/mL)” in data set [7] and “binds” in data set [8].

B12: humanized D04 VHH CAR (hyLYSO_CW_P01_D04) on Nurkat cells or primary T cells (other, not shown: small tags and cut ends)
chain: EVQLLESGGGLVQPGGSLRLSCAASGRIFSIYDTIGWFRQAPGKEREFVAATITTAGITTYDDSVKGRFTISRDNSKNTLYLQMNSLRAEDTAVYYCYVRVGRGDYWGQGTQVTVSS
notes: also called D04 (p1648); P1650
Take B12: the binding result in data set [9] was “binds”.

B13: huD04_CNTY1_D11 anti-idiotype VHH (periplasmic extract) (VHH)
VHH: EVQLLESGGGLVQPGGSLRLSCAASGSTFSYYYMGWYRQAPGKERELVSAISSGGSIYYADSVKGRFTISRDNSKNTLYLQMNSLRAEDTAVYYCARRTYYGDEADYWGQGTQVTVSS
notes: Screened as periplasmic extract; also called VHH of AMD87
For the molecule B13, in data set [14], the binding result is “no binding”.

B14: AMD88 (huD04_CNTY1_D10 anti-idiotype VHH IgG1-Fc fusion) (Fc fusion)
chain: EVQLLESGGGLVQPGGSLRLSCAASGRTSSNYVIGWYRQAPGKEREFVSAISGGGSTYYADSVKGRFTISRDNSKNTLYLQMNSLRAEDTAVYYCATRIYTARGAGDYWGQGTQVTVSS
notes: not shown: IgG1 Fc
Regarding B14, in data set [15], the binding result was “no binding (tested: 50 nM)”. Besides, the Response in [16] is -0.0183; in [1], 2.18; in data set [2], 0.0923; in data set [3], -0.024; in [17], 0.149; in [4] it was -0.0261. The Response in data set [5] was -0.0338; in [6] it was 0.289. Further, in data set [6], the Kd turned out to be 0.0723 µM. In data set [6], the koff is 0.0425 s⁻¹. The molecule also registered a kon in data set [6] of 588000 M⁻¹ s⁻¹.

B15: huD04_CNTY1_B12 anti-idiotype VHH (periplasmic extract) (VHH)
VHH: EVQLLESGGGLVQPGGSLRLSCAASGRTSSNYVMGWYRQAPGKEREGVSAITSGGSTYYADSVKGRFTISRDNSKNTLYLQMNSLRAEDTAVYYCAANLYSRTGAYDYWGQGTQVTVSS
notes: Screened as periplasmic extract; also called VHH of AMD82
For B15, the binding result in data set [14] was “no binding”.

B16: huD04_CNTY1_D12 anti-idiotype VHH (periplasmic extract) (VHH)
VHH: EVQLLESGGGLVQPGGSLRLSCAASGFTSSNYVMGWYRQAPGKEREGVSAISSSGRTYYADSVKGRFTISRDNSKNTLYLQMNSLRAEDTAVYYCAAAYYSGYGETDYWGQGTQVTVSS
notes: Screened as periplasmic extract; also called VHH of AMD86
Turning to B16, the binding result is on record as “no binding” in data set [14] and “binds” in [18].

B17: huD04_CNTY1_D10 anti-idiotype VHH (periplasmic extract) (VHH)
VHH: EVQLLESGGGLVQPGGSLRLSCAASGRTSSNYVIGWYRQAPGKEREFVSAISGGGSTYYADSVKGRFTISRDNSKNTLYLQMNSLRAEDTAVYYCATRIYTARGAGDYWGQGTQVTVSS
notes: Screened as periplasmic extract; also called VHH of AMD88
As to B17, the binding result in data set [14] is “no binding”.
